The source of these data is patent publication US20190367631A1.

Experiment [1] has as its target endogenously expressed human MSR1 on PMA-treated THP-1 cells (human) (UniProt P21757). Nature of the experiment: ECL cell binding, PMA-treated THP-1 cells, 11 nM.
The target is the same in experiment [2]. Description: cell-based or functional assay.
Experiment [3] has the same target. Description: confocal imaging, differentiated THP-1 cells, Alexa 488 secondary.

Chain of endogenously expressed human MSR1 on PMA-treated THP-1 cells (human) (P21757 whole entry): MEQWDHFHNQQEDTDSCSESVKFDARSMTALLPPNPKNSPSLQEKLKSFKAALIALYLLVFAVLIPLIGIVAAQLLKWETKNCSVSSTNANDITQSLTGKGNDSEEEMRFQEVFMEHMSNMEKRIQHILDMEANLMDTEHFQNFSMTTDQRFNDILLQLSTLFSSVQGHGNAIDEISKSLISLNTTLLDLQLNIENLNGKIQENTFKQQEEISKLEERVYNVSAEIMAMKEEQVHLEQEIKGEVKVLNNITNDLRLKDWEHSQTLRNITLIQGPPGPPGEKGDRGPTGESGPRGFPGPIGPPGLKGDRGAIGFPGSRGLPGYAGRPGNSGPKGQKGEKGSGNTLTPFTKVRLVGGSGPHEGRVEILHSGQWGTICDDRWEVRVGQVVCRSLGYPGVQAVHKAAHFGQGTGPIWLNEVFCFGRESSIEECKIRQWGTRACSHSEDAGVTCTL

B1: H1H27747P-N297Q (antibody, human IgG1, V domains shown)
VH: QVQLVESGGAVVQPGRSLRLSCAASGFTFSYYGMHWVRQAPGKGLEWVAVISYDGSKKYYADSVKGRFTISRDNSKNTLYLQMNSLRAEDTAVYYCAKDLTVDFYYGMDVWGQGTTVTVSS
VL: DIQMTQSPSSVSASVGDRVTITCRASQGISSWLAWYQQKPGKAPKLLIYATSSLQSGAPSRFSGSGSGTDFTLTISSLQPEDFATYFCQQANSFPYTFGQGTKLEIKR
Take B1: the ratio of binding signal (RLU) to isotype control in experiment [1] is 13 fold. In experiment [2], the % Internalization amounted to 58.2% and the Total Internalized RFU came to 3.44e+06 RFU. In experiment [3], the Total Binding at 4° C. (RFU) is 2.52e+06 RFU and the Total Binding at 37° C. (RFU) amounted to 5.92e+06 RFU.

B2: H1H27754P-N297Q (antibody, human IgG1, V domains shown)
VH: EVQLVESGGGLVQPGGSLRLSCAASGFTFRTYAMTWVRQAPGKGLDWVSAITGDGGNTYYADSVKGRFTISRDNSKNTLYLQMNSLRAEDTAIYYCAKDQRFSFALYYFDYWGQGTLVTVSS
VL: DIQMTQSPSSVSASVGDRVTITCRASQGISSWLAWYQQKPGNAPKLLIYAAFSLQSGVPSRFSGSGSGTDFTLTISSLQPEDFATYYCQQANNFPWTFGQGTKVEIKR
As to B2, in experiment [1], the ratio of binding signal (RLU) to isotype control amounted to 66 fold. For the same molecule, in experiment [2], the % Internalization was determined as 90% and the Total Internalized RFU came to 6.45e+06 RFU. In experiment [3], this molecule displayed a Total Binding at 4° C. (RFU) of 3.08e+06 RFU and a Total Binding at 37° C. (RFU) of 7.16e+06 RFU.

B3: H2aM21229N (antibody, mouse IgG2a, V domains shown)
VH: EVQLVESGGGLVKPGGSLRLSCAASGFTFSRYSMNWVRQAPGKGLEWVSSISSSSSYIYYGDTVKGRFTISRDNAKKSLYLQMNSLRAEDTAVYYCVRDRGQLVLYFDYWGQGTLVTVSS
VL: DIQMTQSPASLSTSIRDRVTITCRASLSISSFLNWFQQRPGKAPKLLIYVASNLQSGVPSRFSDSGSGTDFTLTISSLQPEDFATYYCQQNYSTPPITFGQGTRLEIK
B3: the ratio of binding signal (RLU) to isotype control in experiment [1] is 56 fold.

B4: H1H21234N-N297Q (antibody, human IgG1, V domains shown)
VH: QVQLQESGPGLVKPSETLSLTCTVTGGSISRNYWSWIRQPPGKGLEWIGYIYYSGSIDYNPSLKSRVTISVDTSKNQFSLKLSSMTAADTAVYYCARDRWNWKYGMDVWGQGTTVIVSS
VL: EIVLTQSPGTLSLSPGERATLSCRASQTVRNNYLAWYHQKPGQAPRLLIYGASSRATGIPDRFSGSGSGTDFTLTISRLEPEDFTVYYCHQYGNSPWTFGQGTKMEIKR
B4: the ratio of binding signal (RLU) to isotype control in experiment [1] is 25 fold. In addition, in experiment [2], the % Internalization was 13.3% and the Total Internalized RFU is 723000 RFU. Besides, in experiment [3], the Total Binding at 4° C. (RFU) came out at 1.95e+06 RFU and the Total Binding at 37° C. (RFU) turned out to be 5.45e+06 RFU.

B5: H2aM25695N (antibody, mouse IgG2a, V domains shown)
VH: QVQLQESGPGLVKPSETLSLTCTVTGGSISRNYWSWIRQPPGKGLEWIGYIYYSGSINYNPSLKSRVTISVDMSKNQFSLKLNSVTAADTAVYYCARDRWNWKYGMDVWGQGTTVIVSS
VL: EIVLTQSPGTLSLSPGERATLSCRASQTVRNSYLAWYHQKPGQAPRLLIYGASSRATGIPDRFSGSGSGTDFTLTISRLEPEDFAVYYCQQYGSSYWTFGQGTKMEIKR
As to B5, the ratio of binding signal (RLU) to isotype control in experiment [1] is 8 fold.

B6: H1H21234N (antibody, human IgG1, V domains shown)
VH: QVQLQESGPGLVKPSETLSLTCTVTGGSISRNYWSWIRQPPGKGLEWIGYIYYSGSIDYNPSLKSRVTISVDTSKNQFSLKLSSMTAADTAVYYCARDRWNWKYGMDVWGQGTTVIVSS
VL: EIVLTQSPGTLSLSPGERATLSCRASQTVRNNYLAWYHQKPGQAPRLLIYGASSRATGIPDRFSGSGSGTDFTLTISRLEPEDFTVYYCHQYGNSPWTFGQGTKMEIKR
For the molecule B6, the ratio of binding signal (RLU) to isotype control in experiment [1] came to 18 fold.

B7: H1H27739P-N297Q (antibody, human IgG1, V domains shown)
VH: EVQLVESGGGLVQPGGSLRLSCTASGFTFSSYAMSWVRQAPGKGLEWVSAISGTGSSTYFTDSVKGRFAISRDNSKNTLYLQMNSLRAEDTAVYYCAKDGEWLSTVTLFDYWGQGTLVTVSS
VL: EIVMTQSPATLSVSPGERATLSCRASQSVSSNLAWYQQKPGQAPRLLIYGASTRATGIPARFSGSGSGTDFTLTISSLQSEDFALYYCQQYFIWPPHPTFGPGTKVDIKR
As to B7, in experiment [1], the ratio of binding signal (RLU) to isotype control turned out to be 9 fold. In experiment [2], this molecule yielded a % Internalization of 71.6% and a Total Internalized RFU of 4.02e+06 RFU. In experiment [3], this molecule had a Total Binding at 4° C. (RFU) of 3.7e+06 RFU and a Total Binding at 37° C. (RFU) of 5.61e+06 RFU.

B8: H1H27729P-N297Q (antibody, human IgG1, V domains shown)
VH: QVQLVESGGGLVKPGGSLRLSCAASGFIFSDYYMSWIRQAPGKGLEWVSYISSSGTTIYGDSVKGRFTMSRDNAKNSLYLQMNSLRAEDTAVYYCARNYALFDYWGQGTLVTVSS
VL: DIQMTQSPSSLSASVGDRVTITCQASQDISKYLNWYQQKPGKAPKLLIYYTSNLETGVPSRFSGSGSGTDFTFTISSLQPEDIATYYCHQSDYLPFTFGPGTKVDIKR
With B8, the ratio of binding signal (RLU) to isotype control in experiment [1] is 8 fold. In experiment [2], this molecule came in with a % Internalization of 57% and a Total Internalized RFU of 3.76e+06 RFU. In experiment [3], this molecule showed a Total Binding at 4° C. (RFU) of 1.93e+06 RFU and a Total Binding at 37° C. (RFU) of 6.61e+06 RFU.

B9: H1H21227N-N297Q (antibody, human IgG1, V domains shown)
VH: QVQLVQSGAEVKKPGASVKVSCKVSGYTLTELSIHWVRQVPGKGLEWMGGFDPEEGETIFAQEFRDRVTLTEDTSPDTAYMELSSLKSEDAAVYYCTTPRYCNNGICYDYWGQGTLVTVSS
VL: DIQMTQSPSSLSASVGDRVTITCRASQSISNYLNWYQQKPGKAPKLLIYTASSLQSGVPSRFSGSGSGTDFTLTISSLQTEDFATYYCQQSYSNFPITFGQGTRLEIKR
Regarding B9, the ratio of binding signal (RLU) to isotype control in experiment [1] was found to be 5 fold. Besides, in experiment [2], the % Internalization amounted to 78.5% and the Total Internalized RFU was 3.23e+06 RFU. In experiment [3], this molecule displayed a Total Binding at 4° C. (RFU) of 1.8e+06 RFU and a Total Binding at 37° C. (RFU) of 4.11e+06 RFU.

B10: H2aM25700N (antibody, mouse IgG2a, V domains shown)
VH: QVQLVQSGSEVKKPGASVKVSCKVSGYTLTELSIHWVRQAPGKGLEWMGGFDPEDGETIYAQKFRGRVTMTEDISPDTAYMELSSLRSEDTAVYYCATPRYCNNGICYDYWGQGTLVTVSS
VL: DIQMTQSPSSLSASIGDRVTITCRASQSISSYLNWYQQKPGKAPMLLIYAASSLQSGVPSRFSGSGSGTDFTLTISSLQTEDFATYYCQQSYSTPPITFGQGTRLEIKR
Take B10: the ratio of binding signal (RLU) to isotype control in experiment [1] was 3 fold.

B11: H1H21231N (antibody, human IgG1, V domains shown)
VH: EVQLVESGGGLVQPGGSLRLSCAASGFTFSDHYMDWVRQAPGKGLEWVGRTRNKANSHTTEYTASVTGRFTISRDDSRNSLYLQMNSLKTEDTAVYYCVRAGIIGTLFDYWGQGTLVTVSS
VL: DIQMTQFPSSLSASVGDRVTITCRASQSISSFLNWFQQKPGKAPKFLIYAASSLQSGVPSRFSGSGSGTDFTLTISSLQPEDFATYYCQQSYSSPPITFGQGTRLEIKR
Consider B11, for which, in experiment [1], the ratio of binding signal (RLU) to isotype control stood at 42 fold.

B12: H1H21227N (antibody, human IgG1, V domains shown)
VH: QVQLVQSGAEVKKPGASVKVSCKVSGYTLTELSIHWVRQVPGKGLEWMGGFDPEEGETIFAQEFRDRVTLTEDTSPDTAYMELSSLKSEDAAVYYCTTPRYCNNGICYDYWGQGTLVTVSS
VL: DIQMTQSPSSLSASVGDRVTITCRASQSISNYLNWYQQKPGKAPKLLIYTASSLQSGVPSRFSGSGSGTDFTLTISSLQTEDFATYYCQQSYSNFPITFGQGTRLEIKR
Consider B12, for which the ratio of binding signal (RLU) to isotype control in experiment [1] amounted to 7 fold.

B13: H1H21231N-N297Q (antibody, human IgG1, V domains shown)
VH: EVQLVESGGGLVQPGGSLRLSCAASGFTFSDHYMDWVRQAPGKGLEWVGRTRNKANSHTTEYTASVTGRFTISRDDSRNSLYLQMNSLKTEDTAVYYCVRAGIIGTLFDYWGQGTLVTVSS
VL: DIQMTQFPSSLSASVGDRVTITCRASQSISSFLNWFQQKPGKAPKFLIYAASSLQSGVPSRFSGSGSGTDFTLTISSLQPEDFATYYCQQSYSSPPITFGQGTRLEIKR
For B13, in experiment [1], the ratio of binding signal (RLU) to isotype control came to 45 fold.

B14: H2aM25690N (antibody, mouse IgG2a, V domains shown)
VH: EVQLLESGGGLVQPGGSLRLSCAASGFTFSNYAMTWVRQAPGTGLEWVSAISGRGSNTYYTDSVKGRFTISRDNSKNMLYLQMNSLRAEDTASYYCAKDRFTTVGNWFDPWGQGTLVTVSS
VL: DIQMTQSPSSLSASVGDRVTITCRASQSISSYLNWYQQKPGKAPKLLIYAASSLQNGVPSRFSGSGSGTDFTLTISSLQPEDFATYYCQQSYSSLPITFGQGTRLDIKR
On to B14, for which, in experiment [1], the ratio of binding signal (RLU) to isotype control worked out at 25 fold.

B15: H1H21227N-N297D (antibody, human IgG1, V domains shown)
VH: QVQLVQSGAEVKKPGASVKVSCKVSGYTLTELSIHWVRQVPGKGLEWMGGFDPEEGETIFAQEFRDRVTLTEDTSPDTAYMELSSLKSEDAAVYYCTTPRYCNNGICYDYWGQGTLVTVSS
VL: DIQMTQSPSSLSASVGDRVTITCRASQSISNYLNWYQQKPGKAPKLLIYTASSLQSGVPSRFSGSGSGTDFTLTISSLQTEDFATYYCQQSYSNFPITFGQGTRLEIKR
Turning to B15, the ratio of binding signal (RLU) to isotype control in experiment [1] stood at 6 fold.

B16: H1H27734P-N297Q (antibody, human IgG1, V domains shown)
VH: EVQLVESRGGLVQPGGSLRLSCAASGFTFSSYAMSWVRQAPGKGLEWVSAISGSGGSTFYADSVKGRFTISRDNSKNTVYLQMNSLRAEDTAVYYCAKALVLRFLEWLGDYWGQGTLVTVSS
VL: DIQMTQSPSTLSASVGDRVTITCRASQSISSWLAWFQQKPGKAPKLLIYKASSLESGVPSRFSGSGSGTEFTLTISSLQPDDFATYYCQQYKSYWTFGQGTKVEIKR
With B16, the ratio of binding signal (RLU) to isotype control in experiment [1] amounted to 21 fold. In experiment [2], this molecule had a Total Internalized RFU of 737000 RFU. Also, in experiment [3], the Total Binding at 4° C. (RFU) worked out at 483000 RFU and the Total Binding at 37° C. (RFU) stood at 1.15e+06 RFU.
